Holding throughout (details): both partners purified
In assay [1] the target is T1, Human importin α3 isoform (residues 1–521) (human, UniProt O00629 1-521).
T1 construct: human importin α3 (Impα3, KPNA4), residues 1-521, intact protein with the N-terminal IBB domain; The materials list Ni2+-resin, ampicillin and IPTG, so expression in E. coli is surmised; also called Impα3; KPNA4
T1 sequence (looked up): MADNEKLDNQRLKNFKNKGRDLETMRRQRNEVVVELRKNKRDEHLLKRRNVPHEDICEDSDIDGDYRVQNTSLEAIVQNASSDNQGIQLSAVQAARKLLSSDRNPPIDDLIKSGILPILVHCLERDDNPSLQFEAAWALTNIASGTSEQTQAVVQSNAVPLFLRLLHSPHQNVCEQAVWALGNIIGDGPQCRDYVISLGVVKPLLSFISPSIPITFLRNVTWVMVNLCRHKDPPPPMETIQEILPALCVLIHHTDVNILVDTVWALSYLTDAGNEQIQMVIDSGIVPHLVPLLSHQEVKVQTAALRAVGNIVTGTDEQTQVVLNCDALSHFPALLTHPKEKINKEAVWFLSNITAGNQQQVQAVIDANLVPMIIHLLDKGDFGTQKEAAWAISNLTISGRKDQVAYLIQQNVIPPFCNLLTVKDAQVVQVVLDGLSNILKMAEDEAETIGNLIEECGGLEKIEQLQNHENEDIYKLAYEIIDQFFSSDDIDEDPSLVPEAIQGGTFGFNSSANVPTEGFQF
Nature of the assay: ITC; importin species (15 µM in protomer units) in the cell, D-NLS peptide (150–200 µM) in the syringe; Tris buffer 50 mM, pH 8.0; 25 °C; single set of binding sites. A general note: In ITC the heat of successive injections is recorded.

For assay [2], the target named is T2, IBB-depleted species of Impα3 (residues 64–521 of the intact protein) (human, UniProt O00629 64-521).
T2 construct: PDB 5XZX was used only as the model of ∆Impα3 for docking; its limits may differ from 64-521; also called ΔImpα3; truncated importin species
T2 sequence (looked up): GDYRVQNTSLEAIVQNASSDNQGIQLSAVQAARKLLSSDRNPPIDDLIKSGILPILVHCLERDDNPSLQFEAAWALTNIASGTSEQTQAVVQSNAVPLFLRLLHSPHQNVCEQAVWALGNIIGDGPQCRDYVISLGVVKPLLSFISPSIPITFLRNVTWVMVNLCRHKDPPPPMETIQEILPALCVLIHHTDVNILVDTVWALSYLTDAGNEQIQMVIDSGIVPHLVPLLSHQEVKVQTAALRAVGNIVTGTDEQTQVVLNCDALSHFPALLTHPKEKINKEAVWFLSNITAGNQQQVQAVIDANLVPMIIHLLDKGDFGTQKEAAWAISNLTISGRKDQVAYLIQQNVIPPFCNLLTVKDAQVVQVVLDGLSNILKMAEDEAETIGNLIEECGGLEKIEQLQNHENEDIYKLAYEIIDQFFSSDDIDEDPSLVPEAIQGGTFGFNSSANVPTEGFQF
The assay is described as above.

Assay [3] deals with T1, Human importin α3 isoform (residues …). The description is as above. The source holds these as a separate data set.
Assay [4] addresses T2, IBB-depleted species of Impα3 (residues …). The description is as above. This is another data set of the same source.
Assay [5] has as its target T1, Human importin α3 isoform (residues …). Nature of the assay: BLI; His-tagged Impα3 or ∆Impα3 immobilised on His-tag biosensors at 0.25 μM; peptides 1 to 10 μM; BLItz system, manufacturer's 10x kinetics buffer; 25 °C; kon and koff from pseudo-first-order plots; apparent Kd = koff/kon, two-state process assumed.
The target in assay [6] is T2, IBB-depleted species of Impα3 (residues …). Described as above.
In assay [7] the target is T1, Human importin α3 isoform (residues …). The experiment in a line: other fluorescence titration; intrinsic fluorescence, excitation at 280 or 295 nm; Impα3 or ∆Impα3 fixed at 3 μM (protomer units), peptide 0–35 μM; 50 mM Tris pH 8.0; 25 °C.
The target in assay [8] is T2, IBB-depleted species of Impα3 (residues …). The assay is described as above.

Non-standard residues stand in square brackets, D forms with d.

B1: D-enantiomeric, isolated NLS region of NUPR1L (residues 51–74 of the intact protein) (peptide)
peptide: Ac-[dR][dT][dR][dR][dE][dQ][dA][dL][dR][dT][dN][dW][dP][dA][dP]GG[dH][dE][dR][dK][dV][dA][dQ]-NH2
SMILES: CC(=O)N[C@H](CCCNC(=N)N)C(=O)N[C@@H](C(=O)N[C@H](CCCNC(=N)N)C(=O)N[C@H](CCCNC(=N)N)C(=O)N[C@H](CCC(=O)O)C(=O)N[C@H](CCC(N)=O)C(=O)N[C@H](C)C(=O)N[C@H](CC(C)C)C(=O)N[C@H](CCCNC(=N)N)C(=O)N[C@@H](C(=O)N[C@H](CC(N)=O)C(=O)N[C@H](Cc1c[nH]c2ccccc12)C(=O)N1CCC[C@@H]1C(=O)N[C@H](C)C(=O)N1CCC[C@@H]1C(=O)NCC(=O)NCC(=O)N[C@H](Cc1c[nH]cn1)C(=O)N[C@H](CCC(=O)O)C(=O)N[C@H](CCCNC(=N)N)C(=O)N[C@H](CCCCN)C(=O)N[C@@H](C(=O)N[C@H](C)C(=O)N[C@H](CCC(N)=O)C(N)=O)C(C)C)[C@H](C)O)[C@H](C)O
notes: NLS region of NUPR1L (paralogue of NUPR1), residues 51-74 of the intact protein, made of D-amino acids; also called D-NLS-NUPR1L; source: synthetic peptide (Genscript, purity higher than 95%)
In general, koff refers to the rate constant with which the complex falls apart. The kon is the second-order rate constant of association. In the case of B1, the dH in assay [1] is -2.5 ± 0.2 kcal/mol; in assay [2], -4.5 ± 0.7 kcal/mol. Moreover, the Kd is 2.7 ± 0.6 µM in assay [3], 5 ± 1 µM in assay [4], 1 µM in assay [5] and 0.7 µM in assay [6]. Further, the koff in assay [5] was found to be 0.069 s⁻¹; in assay [6], 0.038 s⁻¹. Besides, the kon in assay [5] is 68000 M⁻¹ s⁻¹; in assay [6], 51200 M⁻¹ s⁻¹.

B2: D-enantiomeric, isolated, non-canonical NLS of PADI4 (peptide)
peptide: Ac-[dK][dL][dF][dQ][dE][dQ][dQ][dN][dE]G[dH]G[dE][dA][dL][dL][dF][dE]G[dI][dK][dK][dK][dK][dQ][dQ][dK][dI]-NH2
SMILES: CC[C@@H](C)[C@@H](NC(=O)[C@@H](CCCCN)NC(=O)[C@@H](CCC(N)=O)NC(=O)[C@@H](CCC(N)=O)NC(=O)[C@@H](CCCCN)NC(=O)[C@@H](CCCCN)NC(=O)[C@@H](CCCCN)NC(=O)[C@@H](CCCCN)NC(=O)[C@H](NC(=O)CNC(=O)[C@@H](CCC(=O)O)NC(=O)[C@@H](Cc1ccccc1)NC(=O)[C@@H](CC(C)C)NC(=O)[C@@H](CC(C)C)NC(=O)[C@@H](C)NC(=O)[C@@H](CCC(=O)O)NC(=O)CNC(=O)[C@@H](Cc1c[nH]cn1)NC(=O)CNC(=O)[C@@H](CCC(=O)O)NC(=O)[C@@H](CC(N)=O)NC(=O)[C@@H](CCC(N)=O)NC(=O)[C@@H](CCC(N)=O)NC(=O)[C@@H](CCC(=O)O)NC(=O)[C@@H](CCC(N)=O)NC(=O)[C@@H](Cc1ccccc1)NC(=O)[C@@H](CC(C)C)NC(=O)[C@@H](CCCCN)NC(C)=O)[C@H](C)CC)C(N)=O
notes: second predicted (non-canonical) NLS region of PADI4 (protein arginine deiminase 4), residues 499-526 of the intact protein, made of D-amino acids; Mirror-image (all-D) peptide; also called D-NLS-PADI; D-form of NLS2-PADI4; source: synthetic peptide (Genscript, purity higher than 95%)
On to B2, for which the Kd was found to be 12 ± 5 µM in assay [7], 16 ± 11 µM in assay [8], 15 µM in assay [5] and 6 µM in assay [6]. Moreover, the figures for the off-rate constant (koff) in assay [5] and in assay [6] were 0.6 s⁻¹ and 0.37 s⁻¹, respectively. Besides, the kon in assay [5] stood at 45000 M⁻¹ s⁻¹; in assay [6] it was 60000 M⁻¹ s⁻¹.

These data come from article PMC12386367, “Importin α3 Is Tolerant to Nuclear Localization Signal Chirality” (International Journal of Molecular Sciences, 2025).
